Drawing on article PMC11637584 (2024), this text covers Kd for one molecule.

The target in this experiment is Ubiquitin (Homo sapiens, UniProt P0CG48). As to the kind of experiment: BLI. (Biolayer interferometry detects binding as a change in optical thickness at a sensor tip.)

B1: MERS-CoV papain-like protease (PLpro) PLpro (protein)
chain: QLTIEVLVTVDGVNFRTVVLNNKNTYRSQLGCVFFNGADISDTIPDEKQNGHSLYLADNLTADETKALKELYGPVDPTFLHRFYSLKAAVHKWKMVVCDKVRSLKLSDNNCYLNAVIMTLDLLKDIKFVIPALQHAFMKHKGGDSTDFIALIMAYGNCTFGAPDDASRLLHTVLAKAELCCSARMVWREWCNVCGIKDVVLQGLKACCYVGVQTVEDLRARMTYVCQCGGERHRQIVEHTTPWLLLSGTPNEKLVTTSTAPDFVAFNVFQGIETAVGHYVHARLKGGLILKFDSGTVSKTSDWKCKVTDVLFPGQKYSSDCN
For orientation: Kd means the constant that tells how readily two partners part at equilibrium. For B1, the Kd stood at 40.8 µM.
